Consider eight molecules from patent publication US20260028403A1 (Zymeworks, published 2026).

One assay concerns the target T1, Cynomolgus monkey CLDN18 (cynomolgus monkey).
T1 construct: on transfected HEK293-6E cells; also called Cyno CLDN18; cyno CLDN18.2 ortholog
T1 chain: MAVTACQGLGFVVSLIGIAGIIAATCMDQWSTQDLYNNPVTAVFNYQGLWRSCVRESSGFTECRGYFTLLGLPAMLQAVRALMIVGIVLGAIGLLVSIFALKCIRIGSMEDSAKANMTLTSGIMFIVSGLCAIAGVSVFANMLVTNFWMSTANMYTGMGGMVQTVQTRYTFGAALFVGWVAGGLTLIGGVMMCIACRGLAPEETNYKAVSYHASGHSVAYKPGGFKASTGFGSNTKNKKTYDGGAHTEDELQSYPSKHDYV
In words: flow cytometry, HEK293-6E + cyno CLDN18, 4PL fit.

The target in the next assay is T2, Mouse CLDN18 A2.1 (mouse, UniProt P56857 10-264).
T2 construct: on transfected HEK293-6E cells; also called Mouse CLDN18 2.1; mouse CLDN18.2 ortholog
T2 chain: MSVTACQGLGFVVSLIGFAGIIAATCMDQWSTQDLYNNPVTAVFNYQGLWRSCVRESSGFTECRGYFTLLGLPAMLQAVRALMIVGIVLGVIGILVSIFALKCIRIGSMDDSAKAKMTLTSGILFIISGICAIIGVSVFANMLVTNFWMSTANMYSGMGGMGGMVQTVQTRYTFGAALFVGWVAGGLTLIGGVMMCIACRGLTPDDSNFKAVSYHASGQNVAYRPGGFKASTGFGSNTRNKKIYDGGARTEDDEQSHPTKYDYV
Briefly: flow cytometry, HEK293-6E + mouse CLDN18, 4PL fit. A general note: In flow cytometry, cells or beads pass a laser one at a time.

The target in assay [1] is T3, Human CLDN18.2 (human).
T3 construct: on transfected HEK293-6E cells or native on SNU 601 cells
Briefly: flow cytometry, HEK293-6E + human CLDN18.2, 4PL fit.
Experimental: (§1) The purified rabbit chimeric and humanized constructs were assessed for binding to HEK293-6E cells transfected with human, cynomolgus monkey, or mouse CLDN18.2 orthologs (TABLE 12) by flow cytometry. […] Constructs were also assessed for binding to HEK293-6E cells transfected with human CLDN18.1.

The target of assay [2] is T4, CD28 on primary human T cells (human, UniProt P10747 19-220). In words: cell-based or functional assay.
Assay [3] concerns the target T4, CD28 on primary human T cells. Briefly: cell-based or functional assay. The source holds these as a separate data set.
For assay [4], the target named is T3, Human CLDN18.2. In words: flow cytometry, SNU 601 cells.
Experimental: To determine the impact of the trispecific construct format on the construct's ability to binding CLDN18.2, the binding affinity to CLDN18.2 was measured for certain constructs using flow cytometry as described below.
To that end, cells (>80% viability) were resuspended to 1×10⁶ cells/mL in FACS buffer (PBS+2% FBS; Gibco) and seeded in a 96 well v-bottom plate (Sarstedt). Cells were mixed with antibody dilutions and incubated at 4° C. for one hour. Following incubation, cells were washed twice by adding 150 mL FACS buffer and centrifuging for 400×g for 3 minutes. […] Cells were washed twice by adding 150 mL FACS buffer and centrifuging for 400×g for 3 minutes. Cells were resuspended in FACS buffer and acquired on the BD LSRFortessa Cell Analyzer.
Assay [5] concerns the target T5, Recombinant human/cynomolgus/rhesus macaque CD28 mouse IgG2a Fc fusion protein (Acro Biosystems) (human/cynomolgus/rhesus macaque, UniProt P10747 19-152).
T5 construct: bought; also called huCD28
Briefly: SPR, in-format anti-CD28 variants, huCD28.

The target in assay [6] is T6, Recombinant human CD3 epsilon/delta heterodimer, his tag protein (Acro Biosystems) (human, UniProt P07766 23-126; P04234 22-105).
T6 construct: bought
Briefly: SPR Biacore T200, CD3 e/d-his on CM5, construct injected, 1:1 model.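 Further: measured at 25 °C in HEPES-buffered saline with EDTA and Tween 20 at pH 7.4, values are means of three independent runs.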 In general terms: Surface plasmon resonance follows binding to a sensor surface in real time, without labels.

Assay [7] addresses T5, Recombinant human/cynomolgus/rhesus …. Briefly: SPR Biacore T200, CD28-mIgG2a Fc on CM5, construct injected, 1:1 model.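 Further: fc fusion captured by amine coupling, run at 25 °C in HEPES buffer pH 7.4, association 140-500 s then dissociation 600-1200 s, values averaged over three independent runs.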
Experimental: All SPR binding experiments were carried out using a BiacoreT200 instrument at 25° C. with 10 mM HEPES, 150 mM NaCl, 3 mM EDTA, and 0.05% Tween 20 at pH 7.4. Recombinant human/cynomolgus/rhesus macaque CD28 mouse IgG2a Fc fusion protein (Acro Biosystems) was covalently immobilized on CM5 sensor chips by amine coupling. Purified antibody constructs to be tested were injected on the sensor chip at 30 μL/min for 140-500 s following a dissociation for 600-1200 s. Resultant kₒₙ, koff and KD values were determined from fitting the sensorgrams using the 1:1 binding model with reported values as the mean of three independent runs.

Numbering of substitutions follows the chain as printed.

Experimental for Cynomolgus monkey CLDN18: as §1
Experimental for Mouse CLDN18 A2.1: as §1

B1: v37407 (antibody, human IgG1, V domains shown)
VH: QVQLVESGGGLVQPGGSLRLSCSVSGIDLSSNPMIWVRQAPGKGLEYIGIIDTDGSTYYADWAKGRFTISKDSTTVYLQMNSLRAEDTAVYYCARRLHGSSNGYYDDLWGQGTLVTVSS
VL: DGQMTQSPSSVSASVGDRVTITCQASQSIYSYLSWYQQKPGQRPKLLIYKASTLASGVPSRFSGSGSGTDFTLTISSVQPEDFATYYCQQGYTVTNVDKNTFGGGTKVEIK
notes: human IgG1-based monoclonal antibody; also called H4-L4
B1: the Bmax is 1410 in the assay with Cynomolgus monkey CLDN18, 1540 with Mouse CLDN18 A2.1 and 2040 with Human CLDN18.2 [1]. The EC50 (as a rule, the concentration needed to bring the measured effect to its halfway point) turned out to be 0.24 nM with Cynomolgus monkey CLDN18, 0.8 nM in the assay with Mouse CLDN18 A2.1 and 1.54 nM with Human CLDN18.2 [1].

B2: v37409 (antibody, human IgG1, V domains shown)
VH: QVQLVESGGGLVQPGGSLRLSCSVSGIDLSSNPMIWVRQAPGKGLEYIGIIDTDGSTYYADWAKGRFTISKDSSKNTVYLQMNSLRAEDTAVYYCARRLHGSSNGYYDDLWGQGTLVTVSS
VL: B1 VL
notes: human IgG1-based monoclonal antibody; also called H2-L4
Turning to B2, the Bmax amounted to 1500 in the assay with Cynomolgus monkey CLDN18, 1530 with Mouse CLDN18 A2.1 and 1960 with Human CLDN18.2 [1]. For the same molecule, the EC50 in the assay with Cynomolgus monkey CLDN18 amounted to 0.35 nM; with Mouse CLDN18 A2.1 it was 0.89 nM; in the assay with Human CLDN18.2 [1], 1.22 nM.

B3: v37410 (antibody, human IgG1, V domains shown)
VH: B2 VH with E46Q
VL: B1 VL
notes: human IgG1-based monoclonal antibody; also called H3-L4
Turning to B3, the Bmax amounted to 1500 with Cynomolgus monkey CLDN18, 1690 with Mouse CLDN18 A2.1 and 1910 with Human CLDN18.2 [1]. Also, the values for the EC50 in the assay with Cynomolgus monkey CLDN18, with Mouse CLDN18 A2.1 and with Human CLDN18.2 [1] were 0.31 nM, 1.02 nM and 0.97 nM, respectively.

B4: v37408 (antibody, human IgG1, V domains shown)
VH: B1 VH
VL: B1 VL with F83A, I110V
notes: human IgG1-based monoclonal antibody; also called H4-L2
As for B4, the results for the Bmax with Cynomolgus monkey CLDN18, with Mouse CLDN18 A2.1 and with Human CLDN18.2 [1] were 1520, 1920 and 2190, respectively. The EC50 was found to be 0.36 nM in the assay with Cynomolgus monkey CLDN18, 2.65 nM with Mouse CLDN18 A2.1 and 1.87 nM with Human CLDN18.2 [1].

B5: v35777 (antibody, human IgG1, V domains shown)
VH: QSLEESGGRLVTPGTPLTLTCTVSGIDLSSNPMIWVRQAPGKGLQYIGIIDTDGSTYYASWAKGRFTGSKTSTTVDLKITSPTTEDTATYFCARRLHGSSNGYYDDLWGQGTLVTISS
VL: DGVMTQTPSSVSAAVGGTVTIKCQASQSIYSYLSWYQQKPGQRPKLLIYKASTLASGVPSRFKGSGSGTEFTLTISGVQCDDAATYYCQQGYTVTNVDKNTFGGGTEVVVK
notes: also called parental rabbit chimeric; rabbit-human chimeric IgG1/kappa anti-CLDN18.2
In the case of B5, the Bmax in the assay with Cynomolgus monkey CLDN18 stood at 1660; with Mouse CLDN18 A2.1, 1640; with Human CLDN18.2 [1], 2070. For the same molecule, the figures for the EC50 in the assay with Cynomolgus monkey CLDN18, with Mouse CLDN18 A2.1 and in the assay with Human CLDN18.2 [1] were 0.48 nM, 0.87 nM and 1.29 nM, respectively.

B6: v37638 (trispecific antibody, human IgG1, kappa, L234A L235A)
heavy 1: not shown
heavy 2: QVQLVESGGGLVQPGGSLRLSCSVSGIDLSSNPMIWVRQAPGKGLQYIGIIDTDGSTYYADWAKGRFTISKDSTTVYLQINSPRAEDTAVYYCARRLHGSSNGYYDDLWGQGTLVTVSSGGGGSGGGGSGGGGSGGGGSDGQMTQSPSSVSASVGDRVTITCQASQSIYSYLSWYQQKPGQRPKLLIYKASTLASGVPSRFSGSGSGTDFTLTISSVQPEDFATYYCQQGYTVTNVDKNTFGGGTKVEIKAAEPKSSDKTHTCPPCPAPEAAGGPSVFLFPPKPKDTLMISRTPEVTCVVVSVSHEDPEVKFNWYVDGVEVHNAKTKPREEQYNSTYRVVSVLTVLHQDWLNGKEYKCKVSNKALPAPIEKTISKAKGQPREPQVYVLPPSRDELTKNQVSLLCLVKGFYPSDIAVEWESNGQPENNYLTWPPVLDSDGSFFLYSKLTVDKSRWQQGNVFSCSVMHEALHNHYTQKSLSLSPG
light: DIQMTQSPSSLSASVGDRVTITCRASESVEYYVTSLMQWYQQKPGKAPKLLIYAASNVDSGVPSRFSGSGSGTDFTLTISSLQPEDIATYYCQQSRKVPFTFGGGTKVEIKRTVAAPSVFIFPPSDEQLKSGTASVVCLLNNFYPREAKVQWKVDNALQSGNSQESVTEQDSKDSTYSLSSTLTLSKADYEKHKVYACEVTHQGLSSPVTKSFNRGEC
notes: wild type huTN228 Fab; Het Fc, FcKO; also called Cldn18.2xCD3xCD28 trispecific
For B6, in assay [2], the “IC50, T cell-dependent cytotoxicity on SNU 601” value amounted to 0.17 pM and the “Maximum Killing (%), SNU 601” value came to 88.2%. Further, in assay [3], the “IL-2 maximum cytokine, T cells alone” value was 1750 pg/mL; the “IL-2 maximum cytokine, T cells with SNU 601 cells” value was 3710 pg/mL; the “TNFa maximum cytokine, T cells alone” value is 115 pg/mL; the “TNFa maximum cytokine, T cells with SNU 601 cells” value is 670 pg/mL. Besides, in the assay with Human CLDN18.2 [4], the Bmax worked out at 9140 MFI and the EC50 is 47.5 nM. Also, in [5], the “Fold-change from WT” value was 1 fold; the Kd (commonly a measure of binding affinity in units of concentration) is 22.2 nM; the koff (in general, a measure of how fast the partners let go of each other) stood at 0.0021 s⁻¹; the kon (in general, the rate constant with which the complex forms) was 95500 M⁻¹ s⁻¹. In [6], the Kd was 74.6 nM, the koff was 0.0123 s⁻¹ and the kon amounted to 164000 M⁻¹ s⁻¹. Further, in [7], the Kd came out at 22.2 nM, the koff was determined as 0.0021 s⁻¹ and the kon came to 95500 M⁻¹ s⁻¹.

B7: v37635 (trispecific antibody, human IgG1, lambda, L234A L235A)
heavy 1: EVQLVESGGGLVQPGGSLRLSCAASGVTFNYYGMSWIRQAPGKGLEWVASITSSGGRIYYPDSVKGRFTISRENTQKTLYLQMNSLRAEDTAVYYCTLDGRDGWVAYWGQGTLVTVSSASTKGPSVFPLAPSSKSTSGGTAALGCLVKDYFPEPVTVSWNSGALTSGVHTFPAVLQSSGLYSLSSVVTVPSSSLGTQTYICNVNHKPSNTKVDKKVEPKSCDKTHTCPPCPAPEAAGGPSVFLFPPKPKDTLMISRTPEVTCVVVSVSHEDPEVKFNWYVDGVEVHNAKTKPREEQYNSTYRVVSVLTVLHQDWLNGKEYKCKVSNKALPAPIEKTISKAKGQPREPQVYVYPPSRDELTKNQVSLTCLVKGFYPSDIAVEWESNGQPENNYKTTPPVLDSDGSFALVSKLTVDKSRWQQGNVFSCSVMHEALHNHYTQKSLSLSPGGGGGSGDIQMTQSPSSLSASVGDRVTITCRASESVEYYVTSLMQWYQQKPGKAPKLLIYAASNVDSGVPSRFSGSGSGTDFTLTISSLQPEDIATYYCQQSRKVPFTFGGGTKVEIKGGGGSGGGGSGGGGSGGGGSQVQLQESGPGLVKPSETLSLTCAVSGFSLTSYGVHWIRQPPGKGLEWLGVIWPGGGTNFNSALMSRLTISEDTSKNQVSLKLSSVTAADTAVYYCARDRAYGNYLYAMDYWGQGTLVTVSS
heavy 2: B6 heavy 2
light: NFMLTQPHSVSESPGKTVTISCKRNTGNIGSNYVNWYQQHEGSSPTTIIYRNDKRPDGVSDRFSGSIDRSSKSASLTISNLKTEDEADYFCQSYSSGFIFGGGTKLTVLGQPKAAPSVTLFPPSSEELQANKATLVCLISDFYPGAVTVAWKADSSPVKAGVETTTPSKQSNNKYAASSYLSLTPEQWKSHRSYSCQVTHEGSTVEKTVAPTECS
notes: Het Fc, FcKO; also called CD3xCD28xCldn18.2 trispecific
In the assay with Human CLDN18.2 [4], B7 registered a Bmax of 6600 MFI and an EC50 of 30.1 nM. For the same molecule, in assay [6], the Kd amounted to 92.5 nM, the koff turned out to be 0.0143 s⁻¹ and the kon was 157000 M⁻¹ s⁻¹. In [7], the Kd stood at 288 nM, the koff turned out to be 0.0107 s⁻¹ and the kon worked out at 40400 M⁻¹ s⁻¹.

B8: v37640 (trispecific antibody, human IgG1, kappa, L234A L235A)
heavy 1: QVQLQESGPGLVKPSETLSLTCAVSGFSLTSYGVHWIRQPPGKGLEWLGVIWPGGGTNFNSALMSRLTISEDTSKNQVSLKLSSVTAADTAVYYCARDRAYGNYLYAMDYWGQGTLVTVSSASTKGPSVFPLAPSSKSTSGGTAALGCLVKDYFPEPVTVSWNSGALTSGVHTFPAVLQSSGLYSLSSVVTVPSSSLGTQTYICNVNHKPSNTKVDKKVEPKSCDKTHTCPPCPAPEAAGGPSVFLFPPKPKDTLMISRTPEVTCVVVSVSHEDPEVKFNWYVDGVEVHNAKTKPREEQYNSTYRVVSVLTVLHQDWLNGKEYKCKVSNKALPAPIEKTISKAKGQPREPQVYVYPPSRDELTKNQVSLTCLVKGFYPSDIAVEWESNGQPENNYKTTPPVLDSDGSFALVSKLTVDKSRWQQGNVFSCSVMHEALHNHYTQKSLSLSPGGGGGSGNFMLTQPHSVSESPGKTVTISCKRNTGNIGSNYVNWYQQHEGSSPTTIIYRNDKRPDGVSDRFSGSIDRSSKSASLTISNLKTEDEADYFCQSYSSGFIFGGGTKLTVLGGGGSGGGGSGGGGSGGGGSEVQLVESGGGLVQPGGSLRLSCAASGVTFNYYGMSWIRQAPGKGLEWVASITSSGGRIYYPDSVKGRFTISRENTQKTLYLQMNSLRAEDTAVYYCTLDGRDGWVAYWGQGTLVTVSS
heavy 2: B6 heavy 2
light: B6 light
notes: Het Fc, FcKO; also called Cldn18.2xCD28xCD3 trispecific
In the assay with Human CLDN18.2 [4], B8 returned a Bmax of 9770 MFI and an EC50 of 26.4 nM. Also, in [6], the equilibrium dissociation constant (Kd) worked out at 296 nM, the koff was determined as 0.0155 s⁻¹ and the kon is 52200 M⁻¹ s⁻¹. In [7], the Kd is 27.3 nM, the koff stood at 0.00212 s⁻¹ and the kon was 77800 M⁻¹ s⁻¹.
